In the supplement of paper PMC10126150:
± gives the standard deviation of the averaged measurements.

Test system: ATP
Assay: switch fluorescence ratio, 500 uM ATP over buffer (Cy3 cluster intensity, sum of 5 cycles each) (fold (ratio)); higher = stronger signal-on switching upon ATP binding; sequences stand for … in TCGTCGGCAGCGTCAGATGTGTATAAGAGACAGTTTTTTTTTTTTTTTTTTTTTTTTT…TC
Conditions: aptamer strand: ATP DNA aptamer (quencher-CACCTGGGGGAGTATTGCGGAGGAAGG + anchor), 100 nM annealed; ATP concentration: 500 uM
In short: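 Per cluster, summed Cy3 intensity from the target cycles was divided by that from the buffer cycles to give the fluorescence ratio, then averaged per switch-domain sequence. Clusters outside 100-1000 RFU were excluded. The Cy3-labelled switching-strand clusters, on a modified Illumina MiSeq flow-cell, were annealed to 100 nM quencher-labelled ATP aptamer and imaged in selection buffer, then after 15 min with 500 uM ATP at 22 °C, for five cycles with NaOH stripping and re-annealing between them.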
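Further: ATP exposure 15 min at 22 °C before imaging.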

Row | Sequence | switch fluorescence ratio
1 | GATTTCAAAT | 1.02 ± 0.023
2 | TGTTTGATAT | 0.9917 ± 0.005
3 | GGCCCTGCGA | 1.06 ± 0.056
4 | AGTAGGGCTC | 1 ± 0.046
5 | TCACGAATTT | 1 ± 0.014
6 | GAATTAGTGT | 0.984 ± 0.019
7 | ATCAGTAAAA | 1.01 ± 0.035
8 | GATAGGGGAT | 0.986 ± 0.031
9 | TAAAGTATTT | 1.04 ± 0.073
10 | GGTCTCCTTT | 0.971 ± 0.018
11 | TACAATCGCC | 1.06 ± 0.029
12 | ATTATGGGGA | 0.995 ± 0.016
13 | AAGGGGCGCC | 0.999 ± 0.052
14 | TTTGACGGGC | 1.05 ± 0.032
15 | TCCCTGTTGC | 1.09 ± 0.045
16 | AAGAAGGGGA | 1.22 ± 0.31
17 | GGTCCAGGAT | 1.018 ± 0.0068
18 | TAGGAGAGGG | 0.968 ± 0.034
19 | CATCTGGGGG | 1.04 ± 0.054
20 | TGAGGATGTT | 0.9852 ± 0.0089
21 | TCAAGTTATT | 0.973 ± 0.0099
22 | GAAGAATGGT | 0.975 ± 0.013
23 | TGGAAATCGC | 1 ± 0.04
24 | TTGTATGTTA | 1 ± 0.017
25 | GTAATAAGAG | 1.004 ± 0.0063

Row | Sequence | switch fluorescence ratio
26 | TAACAGATTT | 0.958 ± 0.0034
27 | TGGGTGACGG | 0.958 ± 0.036
28 | TGAGAAATTA | 1.05 ± 0.014
29 | CCGATGATTG | 1.08 ± 0.014
30 | TAACGAAACT | 1.26 ± 0.28
31 | CGATTCGGTA | 1.01 ± 0.042
32 | CTTATCTCTT | 1.02 ± 0.025
33 | TAGTAATCTT | 1.003 ± 0.0092
34 | TCGAGGGGTT | 0.993 ± 0.011
35 | TATCGAGATA | 1.02 ± 0.04
36 | TTTTAATCTC | 0.979 ± 0.024
37 | TTTTGGAATA | 1.02 ± 0.059
38 | AGAACTTTTA | 0.998 ± 0.015
39 | TGTGGTGTTT | 0.984 ± 0.036
40 | GTTAGAGCCG | 1.09 ± 0.062
41 | GAGGTAGTCA | 1.0112 ± 0.00047
42 | AATATGTGGG | 0.975 ± 0.024
43 | AATATTGGTA | 1.01 ± 0.018
44 | GGTTTAAGAA | 1.02 ± 0.023
45 | TGATGAGGAA | 0.97725 ± 0.00082
46 | TGGTCAAAAA | 0.9972 ± 0.0036
47 | AAGATTAGTT | 0.998 ± 0.017
48 | GCTCGCCTTA | 0.999 ± 0.039
49 | GGGCGCGGTG | 1.06 ± 0.081
50 | TTTGCACTGT | 0.998 ± 0.055

Row | Sequence | switch fluorescence ratio
51 | TGAGTTAGAT | 1 ± 0.011
52 | TGCGACTCGG | 0.9988 ± 0.0056
53 | GGATGGAGGC | 0.987 ± 0.059
54 | AGATGCTTAT | 0.979 ± 0.019
55 | AGGTTGCAGC | 0.992 ± 0.032
56 | CCGTGTGACT | 1.08 ± 0.042
57 | CGGTGGGTAA | 1.01 ± 0.026
58 | TGTTTTTTGA | 0.99 ± 0.011
59 | TAGGTTGAGT | 0.996 ± 0.061
60 | CGGCGGGTCT | 0.98 ± 0.052
61 | CTGCGTCTAT | 1.08 ± 0.025
62 | TAAGTTGAGT | 1.01 ± 0.0093
63 | TTTTGCTCAA | 0.996 ± 0.011
64 | AGACCACTTG | 1.036 ± 0.0069
65 | GCGATTATCT | 1.002 ± 0.0064
66 | GGGTCAGTTT | 1.04 ± 0.054
67 | GGGCCGCGCT | 0.942 ± 0.039
68 | TGGAATGGGT | 0.987 ± 0.032
69 | CAGGTTTCTA | 1 ± 0.043
70 | CAGTATTTTG | 0.9952 ± 0.0031
71 | AGTCCCAAGG | 1.13 ± 0.2
72 | GGCCGCGGAC | 1.01 ± 0.035
73 | AGCTTTATTT | 1.06 ± 0.12
74 | ATGATGGATT | 1.008 ± 0.0031
75 | CGGGACGGAG | 0.997 ± 0.11

Row | Sequence | switch fluorescence ratio
76 | AAAGTGTACG | 0.999 ± 0.03
77 | TGGTTACTGT | 1.02 ± 0.022
78 | AGATGTTGAA | 0.979 ± 0.023
79 | CAATCATGG | 1.01 ± 0.019
80 | TGGGGTAGGC | 1.02 ± 0.034
81 | TGGGAAAATT | 1 ± 0.033
82 | GTTTGCTTTT | 1 ± 0.046
83 | GTTGCCGGTT | 1.026 ± 0.008
84 | TACGGGGGG | 1.02 ± 0.035
85 | ATTTGATGAG | 0.987 ± 0.045
86 | GATGTAGCTT | 1.029 ± 0.0033
87 | ACCTAAAGGA | 1.02 ± 0.016
88 | AGGGAACCGC | 1.016 ± 0.0062
89 | CCCTGGCACT | 1.12 ± 0.005
90 | ATTAGGTATA | 0.9712 ± 0.0036
91 | CGATGATCGG | 1 ± 0.016
92 | GAGTTAAGGG | 1.007 ± 0.0018
93 | TGTTGTAGTC | 0.965 ± 0.017
94 | AAAGCGTGCG | 0.964 ± 0.022
95 | TCCGAAAAAG | 1.33 ± 0.44
96 | TTCACGGCCT | 1.03 ± 0.018
97 | ATTGAAAGCA | 1.03 ± 0.025
98 | GTTAAATGTG | 0.972 ± 0.024
99 | ACTAAAGGCT | 1.01 ± 0.015
100 | GGCGGCGCTG | 1.03 ± 0.028

Row | Sequence | switch fluorescence ratio
101 | CGTTCAGTTC | 0.972 ± 0.053
102 | GTTGGGGTGT | 1.01 ± 0.013
103 | AGGGTTTTTG | 0.994 ± 0.016
104 | AGCTGTTTGG | 1 ± 0.015
105 | ACAACGGAAG | 1.03 ± 0.035
106 | GGTTATGAAT | 1 ± 0.015
107 | TTTACGGTTG | 0.996 ± 0.016
108 | ACATTGGCTA | 1 ± 0.035
109 | CTTAGGCGGT | 1.038 ± 0.0062
110 | TGTTTTGGAG | 1 ± 0.032
111 | TTTATTCAGG | 1.02 ± 0.032
112 | AATCGGGCCA | 0.987 ± 0.018
113 | TTAAGTAATA | 1.02 ± 0.014
114 | GGCTGACATT | 0.979 ± 0.046
115 | TTTGGCATGG | 1.024 ± 0.0073
116 | ACAGCTGTTT | 0.998 ± 0.027
117 | GGTGTGGTGC | 1.02 ± 0.012
118 | AATGTTTATC | 1.027 ± 0.0084
119 | TATATTGTA | 0.986 ± 0.03
120 | ACCGGTGCTG | 0.98 ± 0.042
121 | GATATTGTTT | 0.988 ± 0.019
122 | GTTAAGGTTT | 1.03 ± 0.063
123 | AGTATAAAAT | 1.01 ± 0.018
124 | GCTGAATAAT | 1.01 ± 0.029
125 | AGTAGGCAAG | 1 ± 0.035

Row | Sequence | switch fluorescence ratio
126 | TATAGTCTA | 1.01 ± 0.031
127 | GGACAAGGGT | 1.02 ± 0.037
128 | CAAGTTTTTT | 0.984 ± 0.016
129 | ATCTGTGGGG | 0.9962 ± 0.0026
130 | TAGGGGTTTT | 1.01 ± 0.024
131 | CTTGAGACGG | 1.01 ± 0.017
132 | ACTCTTTGAT | 1.02 ± 0.0093
133 | TTGTGCGCGG | 1.04 ± 0.019
134 | ATTTTTGAAC | 0.99 ± 0.019
135 | GATATCCGAG | 1.05 ± 0.011
136 | AGTAGCAAAT | 1.2 ± 0.13
137 | GGGGCTTATT | 0.975 ± 0.029
138 | AGGCCATAAG | 0.9953 ± 0.0034
139 | GTAAATAGCT | 1.02 ± 0.073
140 | TCAAGGCAA | 1.8 ± 0.037
141 | ACGTATTTTC | 1.171 ± 0.0024
142 | ACTTGTAAAC | 1.01 ± 0.025
143 | GTTTTTGAGT | 1.016 ± 0.0031
144 | TTGCCGTGTT | 1.02 ± 0.016
145 | TGCCTGTGCG | 1.04 ± 0.031
146 | TTTTTTCGGG | 0.993 ± 0.023
147 | TTCGGTAAAT | 1.03 ± 0.033
148 | AAGGACCTCC | 1.232 ± 0.0034
149 | GTTATAGGAG | 0.99 ± 0.019
150 | GTCGATTAGT | 0.944 ± 0.033

Row | Sequence | switch fluorescence ratio
151 | GGGAGGAGCA | 1.01 ± 0.073
152 | TTCATACGGG | 1.03 ± 0.04
153 | GGCCGGCAGG | 0.972 ± 0.024
154 | GGTTGGAAGG | 0.9761 ± 0.0047
155 | ACGCGACGGA | 1.07 ± 0.079
156 | ACTGCGAATT | 1.07 ± 0.023
157 | CATTACCGAG | 1.049 ± 0.0037
158 | CGCGATGGGT | 1.08 ± 0.033
159 | CGATTTTGA | 0.969 ± 0.043
160 | ACCAGGATGC | 1.225 ± 0.0042
161 | GGGATGGCAG | 0.9816 ± 0.0059
162 | ATTGTATAAA | 1.04 ± 0.056
163 | TCGGGTTGGT | 1.02 ± 0.061
164 | GGGCGCAAGG | 1.02 ± 0.029
165 | GATTATGCTG | 1.17 ± 0.06
166 | GGGGAGTGAG | 0.986 ± 0.017
167 | GCGATTAGAG | 1 ± 0.02
168 | GCTGTGGCGT | 1.02 ± 0.04
169 | AAGTTAATTT | 0.998 ± 0.021
170 | TACAGGACTC | 1.09 ± 0.012
171 | TTCCATCGCC | 1.53 ± 0.14
172 | CATTTGTTTT | 1.02 ± 0.021
173 | TGTTTATTTT | 0.982 ± 0.025
174 | CGGTTACGGA | 0.977 ± 0.035
175 | GACTAAGGGG | 1 ± 0.02

Row | Sequence | switch fluorescence ratio
176 | CCGAGTTTTT | 1.07 ± 0.086
177 | AGTCGAGCTA | 0.986 ± 0.021
178 | AGGGTTGTGC | 1.03 ± 0.049
179 | TTTCCGTTTG | 1.16 ± 0.32
180 | AATGGTTTAT | 0.9489 ± 0.0065
181 | GTATCGAGGA | 0.963 ± 0.047
182 | TCGTTGTTAT | 1 ± 0.023
183 | ATTAAGGGTG | 1.04 ± 0.093
184 | TTAGGCTGAT | 0.981 ± 0.02
185 | TTTCGTGGCA | 1.02 ± 0.066
186 | TTCCGGGTGT | 1.66 ± 0.75
187 | GAAGGGTATT | 1.01 ± 0.026
188 | GGTGGCGTTA | 0.999 ± 0.016
189 | ATAAATTGCG | 0.9931 ± 0.0086
190 | CGGGGACTGG | 0.9726 ± 0.0072
191 | GACAGAAGGC | 1 ± 0.052
192 | AGTATTTGTA | 1 ± 0.02
193 | GCTGGATTGG | 0.965 ± 0.016
194 | CATGTCTCTC | 1.02 ± 0.032
195 | TCGGGCTGGG | 1.03 ± 0.0069
196 | TGCTAGTGGT | 1.01 ± 0.016
197 | GGTGTGTACG | 1.28 ± 0.41
198 | TAGCTTGGGA | 1.01 ± 0.026
199 | AAGAAGGGCA | 1 ± 0.055
200 | AGTAGAGTGT | 0.995 ± 0.04
